Experimental findings from PMC11211486, “Structural basis for recruitment of peptidoglycan endopeptidase MepS by lipoprotein NlpI” (Nature Communications, 2024) are described below.

Positions count from the first letter of the chain named. Where “and” joins values, the source holds several entries; their conditions need not be identical. Equal values may be shown once. Where no end group is shown, it is not given here. Some results are limits rather than exact numbers.

First the molecules themselves.
T1: mMepS-L24R (E. coli, UniProt P0AFV4 27-188, C1 replaced with a Met residue | L24R)
T1 construct: Site-directed mutant of mMepS; also called L24R variant; source: E. coli BL21 (DE3), purified (Ni-NTA, SEC)
T1 sequence (looked up): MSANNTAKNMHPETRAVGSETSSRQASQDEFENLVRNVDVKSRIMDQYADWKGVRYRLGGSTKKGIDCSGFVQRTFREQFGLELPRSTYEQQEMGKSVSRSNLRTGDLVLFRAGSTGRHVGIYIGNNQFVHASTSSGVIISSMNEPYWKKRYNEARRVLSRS

T2: mMepS-Q28A (E. coli, UniProt P0AFV4 27-188, C1 replaced with a Met residue | Q28A)
T2 construct: Site-directed mutant of mMepS; source: E. coli BL21 (DE3), purified (Ni-NTA, SEC)
T2 sequence (looked up): T1 sequence (looked up) with R24L, Q28A

B1: MepS-N53 (residues 1-53) (domain or fragment, E. coli, UniProt P0AFV4 27-79, looked up)
chain: MSANNTAKNMHPETRAVGSETSSLQASQDEFENLVRNVDVKSRIMDQYADWKG
notes: MepS, E. coli, mature residues 1-53, C1 replaced by Met; numbers count on: the mature protein; His-tag and TEV site; nothing is said for the ITC samples; source: E. coli BL21 (DE3), purified (Ni-NTA, SEC)
B2: MepS-N53 (residues 1-53) (domain or fragment, E. coli, UniProt P0AFV4 27-79, looked up)
chain: B1 chain
modifications: also: 15N-labelled
notes: MepS, E. coli, N-terminal 53 residues of the mature protein, C1 replaced with Met. numbers count on: the mature protein; this is told for the NMR samples, not for ITC; source: E. coli BL21 (DE3), purified (Ni-NTA, SEC); not shown: His6 with TEV site, N-terminal, kept
B3: MepS-N39 (residues 1-39) (domain or fragment, E. coli, UniProt P0AFV4 27-65, looked up)
chain: MSANNTAKNMHPETRAVGSETSSLQASQDEFENLVRNVD
notes: MepS, E. coli, mature residues 1-39, C1 replaced by Met; numbers count on: the mature protein; His-tag and TEV site; nothing is said for the ITC samples; source: E. coli BL21 (DE3), purified (Ni-NTA, SEC)
B4: MepS-N39 (residues 1-39) (domain or fragment, E. coli, UniProt P0AFV4 27-65, looked up)
chain: B3 chain
modifications: also: 15N-labelled
notes: MepS, E. coli, N-terminal 39 residues of the mature protein, C1 replaced with Met. numbers count on: the mature protein; this is told for the NMR samples, not for ITC; source: E. coli BL21 (DE3), purified (Ni-NTA, SEC); not shown: His6 with TEV site, N-terminal, kept
B5: NlpI (residues 20-294), soluble mature lipoprotein NlpI without the lipoprotein signal peptide (natural protein, E. coli, UniProt P0AFB1 20-294, looked up)
chain: SNTSWRKSEVLAVPLQPTLQQEVILARMEQILASRALTDDERAQLLYERGVLYDSLGLRALARNDFSQALAIRPDMPEVFNYLGIYLTQAGNFDAAYEAFDSVLELDPTYNYAHLNRGIALYYGGRDKLAQDDLLAFYQDDPNDPFRSLWLYLAEQKLDEKQAKEVLKQHFEKSDKEQWGWNIVEFYLGNISEQTLMERLKADATDNTSLAEHLSETNFYLGKYYLSLGDLDSATALFKLAVANNVHNFVEHRYALLELSLLGQDQDDLAESDQQ
notes: the lipidation residue C19 is not in the construct; pET28a, N-terminal His-tag followed by a TEV site; also called NlpI dimer; adaptor NlpI; source: E. coli BL21 (DE3), purified (Ni-NTA, SEC, MonoQ)
B6: soluble mature form of MepS (mMepS, residues 1-162) (enzyme, E. coli, UniProt P0AFV4 27-188, looked up)
chain: T1 sequence (looked up) with R24L
notes: numbers count on: the mature protein; Cloned into either pET21a (C-terminal His-tag) or pET28a (N-terminal His-tag and TEV site); also called mMepS-1; mMepS-2; source: E. coli BL21 (DE3), purified (Ni-NTA, SEC)
B7: mMepS-D39A (enzyme, E. coli, UniProt P0AFV4 27-188, looked up)
chain: T1 sequence (looked up) with R24L, D39A
notes: numbers count on: the mature protein; Site-directed mutant of mMepS; source: E. coli BL21 (DE3), purified (Ni-NTA, SEC)
B8: mMepS-Q28A (enzyme, E. coli, UniProt P0AFV4 27-188, looked up)
chain: T1 sequence (looked up) with R24L, Q28A
notes: as for B7
B9: mMepS-L24R (enzyme, E. coli, UniProt P0AFV4 27-188, looked up)
chain: T1 sequence (looked up)
notes: as for B7
B10: soluble mature form of MepS (mMepS, residues 1-162) (enzyme, E. coli, UniProt P0AFV4 27-188, looked up)
chain: T1 sequence (looked up) with R24L
modifications: 15N-labelled in the NMR titrations
notes: Cloned into either pET21a (C-terminal His-tag) or pET28a (N-terminal His-tag and TEV site); also called wild-type mMepS; mature full-length MepS; source: E. coli BL21 (DE3), purified (Ni-NTA, SEC)
B11: mMepS-D39A (enzyme, E. coli, UniProt P0AFV4 27-188, looked up)
chain: T1 sequence (looked up) with R24L, D39A
notes: Site-directed mutant of mMepS; source: E. coli BL21 (DE3), purified (Ni-NTA, SEC)

For data set [1], the target named is T3, NlpI (residues 20-294, without the lipoprotein signal peptide) (E. coli, UniProt P0AFB1 20-294).
T3 construct: the lipidation site C19 is not in the construct; pET28a with an N-terminal His-tag and a TEV cleavage site; also called NlpI-WT; NlpI dimer; source: E. coli BL21 (DE3), purified (Ni-NTA, SEC, MonoQ)
Kind of data set: ITC; NlpI (or NlpI-ΔN) in the syringe, 300 or 600 µM, injected into 30 µM MepS protein in the cell; 20 °C; 20 mM HEPES pH 7.5, 300 mM NaCl, 2 mM β-mercaptoethanol; one set of sites model; three experiments and their average. To be noted: both partners purified. (ITC needs no label: the signal is the heat of the interaction.)

The target of data set [2] is B5. Nature of the data set: ITC; NlpI (300 or 600 µM) injected into 30 µM MepS protein in the cell; 20 °C; 20 mM HEPES pH 7.5, 300 mM NaCl, 2 mM β-mercaptoethanol; one set of sites model. Conditions: both partners purified.
Data set [3] deals with the molecule itself. Nature of the data set: crystal structure; NlpI-mMepS complex, 2.8 Å, space group C2, PDB 8XUP.
The target of data set [4] is B10. Nature of the data set: ITC; NlpI (300 or 600 µM) injected into 30 µM MepS protein in the cell; 20 °C; 20 mM HEPES pH 7.5, 300 mM NaCl, 2 mM β-mercaptoethanol; one set of sites model. Conditions: both partners purified.
The next data set concerns the target T1, mMepS-L24R. Described as above. To be noted: both partners purified.
For another data set, the target named is T2, mMepS-Q28A. The data set is described as above. To be noted: both partners purified.
In data set [5] the target is B10. Nature of the data set: NMR titration; 1H-15N TROSY-HSQC of 15N-labelled MepS protein (50 µM in Fig. 1) with unlabelled NlpI dimer (25 µM), NlpI-ΔN or Prc^SK added; 298 K; intensity ratios I/I0. Conditions: both partners purified.

With B1, the dissociation constant (Kd) in data set [1] was 1190 nM and 1560 nM and 1590 nM.

The molecule B2 showed a dissociation constant Kd in data set [2] of 1450 nM. For the molecule B3, the Kd in data set [1] is 2650 nM and 2550 nM and 2840 nM. B4: in data set [2], the dissociation constant Kd worked out at 2680 nM.

As for B5, the “stoichiometry N” value worked out at 2 in data set [3] and 1 in data set [4]. Moreover, the “fold increase in KD against mMepS” value with mMepS-L24R was roughly 28 fold. For the same molecule, the “fold decrease in binding affinity against mMepS” value with mMepS-Q28A was determined as 7.7 fold. Besides, the “NMR signal intensity ratio with NlpI” value in data set [5] is less than 10%. In the case of B6, the dissociation constant Kd in data set [1] is 250 nM and 220 nM. Take B7: the dissociation constant (Kd) in data set [1] was 280 nM and 390 nM and 500 nM.

In the case of B8, the Kd in data set [1] is 1910 nM and 1770 nM and 1880 nM and 1850 nM.

In the case of B9, in data set [1], the equilibrium dissociation constant (Kd) was 6210 nM and 6800 nM and 6940 nM and 6650 nM. As to B10, the Kd in data set [2] was found to be 240 nM. That is a sub-micromolar value. For the molecule B11, in data set [2], the Kd stood at 390 nM.

One may read the Kd as a measure of binding affinity in units of concentration. A lower Kd goes with tighter binding. The stoichiometry N is a count of units in the complex or per binding partner.
